This note sets out measurements from US7402303 (LABORATOIRES SERONO, dated 2008).

This assay deals with T1, recombinant CCR1 (UniProt P32246 1-355, limits assumed).
T1 construct: whole, on cells; The assay used membranes of CHO transfectants, not whole cells
T1 sequence (looked up): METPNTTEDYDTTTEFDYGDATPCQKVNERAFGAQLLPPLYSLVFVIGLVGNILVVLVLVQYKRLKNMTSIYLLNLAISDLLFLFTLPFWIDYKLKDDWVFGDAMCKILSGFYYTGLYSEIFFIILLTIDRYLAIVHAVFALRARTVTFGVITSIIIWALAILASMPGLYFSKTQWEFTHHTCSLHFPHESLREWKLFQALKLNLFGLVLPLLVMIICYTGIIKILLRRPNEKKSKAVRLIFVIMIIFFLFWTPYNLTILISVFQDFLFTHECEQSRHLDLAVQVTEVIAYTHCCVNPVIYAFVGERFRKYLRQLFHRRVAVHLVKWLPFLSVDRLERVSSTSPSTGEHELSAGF
In words: SPA equilibrium competition with [125I]-MIP-1α on CHO-CCR1 membranes. As for the experimental part:
Competitors were prepared by serial dilutions of the unlabelled chemokines in binding buffer to cover the range 10^-6-10^-12 M. The binding buffer used was 50 mM HEPES, pH 7.2 containing 1 mM CaCl_2, 5 mM MgCl_2, 0.15 M NaCl and 0.5% BSA. Wheatgerm SPA beads (Amersham) were solubilised in PBS to 50 mg/ml, and diluted in the binding buffer to a 10 mg/ml, and the final concentration in the assay was 0.25 mg/well. Membranes prepared from CHO cells expressing CCR1 or CCR5 were stored at −80° C. and diluted in the binding buffer to a 80 μg/ml. Equal volumes of membrane and beads stocks were mixed before performing the assay to reduce background. […] The plates were incubated at room temperature with agitation for 4 hours. Radioactivity was measured and data analysed as described for the heparin-binding assay.
MIP-1α for binding to recombinant CCR1 and CCR5 in membranes prepared from CHO stable transfectants. There was no significant difference in any of the single mutations on both receptors (results not shown).

Positions count from the first letter of the chain named. Numbers in names are those of the source.

B1: triple 40's RANTES mutant (R44A-K45A-R47A) (ligand)
chain: SPYSSDTTPCCFAYIARPLPRAHIKEYFYTSGKCSNPAVVFVTAANAQVCANPEKKWVREYINSLEMS
notes: E. coli protein, leader cleaved; also called R44A-K45A-R47A RANTES; triple 40's mutant
B1: the “fold reduction in affinity against WT RANTES” value was found to be 100 fold.

B2: triple 50's RANTES mutant (K55A-K56A-R59A) (ligand)
chain: B1 chain with A44R, A45K, A47R, K55A, K56A, R59A
notes: E. coli protein, leader cleaved; also called triple 50's mutant; 50's mutant
B2: the “fold loss of affinity against WT RANTES” value was 3 fold.
